# Source: US20250154277A1 (CONCEPT TO MEDICINE BIOTECH, published 2025)
# Key:
# [1] = biological target: T1, human 5T4-His protein (human, UniProt Q13641 32-355); test: ELISA, coated 5T4-His
# T1 construct: also called recombinant 5T4 protein (human 5T4-his tag); human 5T4 protein; not shown: His tag
# T1 sequence (looked up): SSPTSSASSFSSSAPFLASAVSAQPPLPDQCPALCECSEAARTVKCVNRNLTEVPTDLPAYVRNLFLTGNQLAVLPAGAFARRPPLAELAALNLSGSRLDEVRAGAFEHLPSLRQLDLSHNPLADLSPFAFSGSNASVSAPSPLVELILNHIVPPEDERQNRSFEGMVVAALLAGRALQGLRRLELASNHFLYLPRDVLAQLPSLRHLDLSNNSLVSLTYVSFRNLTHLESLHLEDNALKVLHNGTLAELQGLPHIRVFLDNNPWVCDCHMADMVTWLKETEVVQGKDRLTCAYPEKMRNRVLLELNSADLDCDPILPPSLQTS
# Procedure: To evaluate the binding activity of 14G12 humanized antibodies to human 5T4, the 14G12 chimeric antibody along with 14G12 humanized mAbs were subjected to ELISA test.
# Briefly, microtiter plates were coated with human 5T4-His protein at 1 μg/ml in PBS, 100 μl/well at 4° C. overnight, then blocked with […]. Serial dilutions of antibodies were added to each well and incubated for 1 hour at 37° C. The plates were washed with PBS/Tween and then incubated with Goat Anti-Human IgG-HRP for 30 mins at 37° C. After washing, the plates were developed with TMB substrate and analyzed by spectrophotometer at OD 450 nm. As shown in FIG. 10 and Table 6, most of the humanized antibodies bound to human 5T4 at high activity.
# [2] = biological target: T1, human 5T4-His protein; test: SPR Biacore, Protein A capture
# Procedure: The binding of the 14G12 humanized antibodies to recombinant 5T4 protein (human 5T4-his tag) was tested with Biacore using a capture method. The mAbs were captured using Protein A chip. Serial dilution of human 5T4-his tag protein was injected over captured antibody for 120 s-180 s at a flow rate of 30 μl/min. The antigen was allowed to dissociate for 360 s-1000 s. All the experiments were carried out on a Biacore T200. Data analysis was carried out using the Biacore T200 evaluation software.
Binder,EC50 [1],Kd [2],koff [2],kon [2]
"Hu14G12-32 (antibody, V domains shown, humanized) VH: QVQLVQSGAEVKKPGASVKVSCKASGYAFSSSWMNWVRQAPGQGLEWMGRIYREDGHTNYNGKFKGRVTMTADKSITTAYMELSRLRSDDTAVYYCANGGAMDYWGQGTLVTVSS VL: DIQMTQSPSTLSASVGDRVTITCRASQDISNYLNWYQQKPGKAPKLLIYYTSRLHSGVPSRFSGSGSGTEYTLTISSLQPDDIATYFCQQDNTLPWTFGGGTKVEIK",0.0093 mg/L,2.76 nM,0.000979 s⁻¹,355000 M⁻¹ s⁻¹
"Hu14G12-9 (antibody, V domains shown, humanized) VH: EVQLVQSGAEVKKPGATVKISCKVSGYAFSSSWMNWVKQAPGKGLEWIGRIYREDGHTNYNGKFKGRATITADTSTTTAYMELSSLRSEDTAVYFCANGGAMDYWGQGTLVTVSS VL: DIQMTQSPSSLSASVGDRVTITCRASQDISNYLNWYQQKPGKAPKLLIYYTSRLHSGVPSRFSGSGSGTDFTFTISSLQPEDIATYYCQQDNTLPWTFGGGTKLEIK",0.012 mg/L,5.31 nM,0.00107 s⁻¹,202000 M⁻¹ s⁻¹
"Hu14G12-1 (antibody, V domains shown, humanized) VH: EVQLVQSGAEVKKPGATVKISCKVSGYAFSSSWMNWVQQAPGKGLEWMGRIYREDGHTNYNGKFKGRVTITADTSTDTAYMELSSLRSEDTAVYYCATGGAMDYWGQGTLVTVSS VL: DIQMTQSPSSLSASVGDRVTITCRASQDISNYLNWYQQKPGKAPKLLIYYTSRLHSGVPSRFSGSGSGTDFTFTISSLQPEDIATYYCQQDNTLPWTFGGGTKLEIK",0.021 mg/L,42.7 nM,0.0121 s⁻¹,283000 M⁻¹ s⁻¹
"Hu14G12-5 (antibody, V domains shown, humanized) VH: EVQLVQSGAEVKKPGATVKISCKVSGYAFSSSWMNWVQQAPGKGLEWIGRIYREDGHTNYNGKFKGRVTITADTSTDTAYMELSSLRSEDTAVYFCANGGAMDYWGQGTLVTVSS VL: DIQMTQSPSSLSASVGDRVTITCRASQDISNYLNWYQQKPGKAPKLLIYYTSRLHSGVPSRFSGSGSGTDFTFTISSLQPEDIATYYCQQDNTLPWTFGGGTKLEIK",0.014 mg/L,5.88 nM,0.00146 s⁻¹,248000 M⁻¹ s⁻¹
"Hu14G12-12 (antibody, V domains shown, humanized) VH: EVQLVQSGAEVKKPGATVKISCKVSGYAFSSSWMNWVKQAPGKGLEWIGRIYREDGHTNYNGKFKGRATITADTSTTTAYMELSSLRSEDTAVYFCANGGAMDYWGQGTLVTVSS VL: DIQMTQSPSSLSASVGDRVTISCRASQDISNYLNWYQQKPGKTVKLLIYYTSRLHSGVPSRFSGSGSGTDYTFTISSLQPEDIATYFCQQDNTLPWTFGGGTKLEIK",0.019 mg/L,2.39 nM,0.000655 s⁻¹,274000 M⁻¹ s⁻¹
"Hu14G12-15 (antibody, V domains shown, humanized) VH: EVQLVQSGAEVKKPGATVKISCKASGYAFSSSWMNWVKQAPGKGLEWIGRIYREDGHTNYNGKFKGRATITADTSTTTAYMELSSLRSEDSAVYFCANGGAMDYWGQGTLVTVSS VL: DIQMTQSPSSLSASVGDRVTISCRASQDISNYLNWYQQKPGKAVKLLIYYTSRLHSGVPSRFSGSGSGTDFTFTISSLQPEDIATYFCQQDNTLPWTFGGGTKLEIK",0.014 mg/L,3.19 nM,0.000837 s⁻¹,262000 M⁻¹ s⁻¹
"Hu14G12-4 (antibody, V domains shown, humanized) VH: EVQLVQSGAEVKKPGATVKISCKVSGYAFSSSWMNWVQQAPGKGLEWMGRIYREDGHTNYNGKFKGRVTITADTSTDTAYMELSSLRSEDTAVYYCATGGAMDYWGQGTLVTVSS VL: DIQMTQSPSSLSASVGDRVTISCRASQDISNYLNWYQQKPGKTVKLLIYYTSRLHSGVPSRFSGSGSGTDYTFTISSLQPEDIATYFCQQDNTLPWTFGGGTKLEIK",0.019 mg/L,12.5 nM,0.00267 s⁻¹,214000 M⁻¹ s⁻¹
"Hu14G12-11 (antibody, V domains shown, humanized) VH: EVQLVQSGAEVKKPGATVKISCKVSGYAFSSSWMNWVKQAPGKGLEWIGRIYREDGHTNYNGKFKGRATITADTSTTTAYMELSSLRSEDTAVYFCANGGAMDYWGQGTLVTVSS VL: DIQMTQSPSSLSASVGDRVTISCRASQDISNYLNWYQQKPGKAVKLLIYYTSRLHSGVPSRFSGSGSGTDFTFTISSLQPEDIATYFCQQDNTLPWTFGGGTKLEIK",0.015 mg/L,2.17 nM,0.000523 s⁻¹,241000 M⁻¹ s⁻¹
"Hu14G12-13 (antibody, V domains shown, humanized) VH: EVQLVQSGAEVKKPGATVKISCKASGYAFSSSWMNWVKQAPGKGLEWIGRIYREDGHTNYNGKFKGRATITADTSTTTAYMELSSLRSEDSAVYFCANGGAMDYWGQGTLVTVSS VL: DIQMTQSPSSLSASVGDRVTITCRASQDISNYLNWYQQKPGKAPKLLIYYTSRLHSGVPSRFSGSGSGTDFTFTISSLQPEDIATYYCQQDNTLPWTFGGGTKLEIK",0.018 mg/L,6.12 nM,0.00121 s⁻¹,198000 M⁻¹ s⁻¹
"Hu14G12-7 (antibody, V domains shown, humanized) VH: EVQLVQSGAEVKKPGATVKISCKVSGYAFSSSWMNWVQQAPGKGLEWIGRIYREDGHTNYNGKFKGRVTITADTSTDTAYMELSSLRSEDTAVYFCANGGAMDYWGQGTLVTVSS VL: DIQMTQSPSSLSASVGDRVTISCRASQDISNYLNWYQQKPGKAVKLLIYYTSRLHSGVPSRFSGSGSGTDFTFTISSLQPEDIATYFCQQDNTLPWTFGGGTKLEIK",0.015 mg/L,2.52 nM,0.000846 s⁻¹,336000 M⁻¹ s⁻¹
"Hu14G12-8 (antibody, V domains shown, humanized) VH: EVQLVQSGAEVKKPGATVKISCKVSGYAFSSSWMNWVQQAPGKGLEWIGRIYREDGHTNYNGKFKGRVTITADTSTDTAYMELSSLRSEDTAVYFCANGGAMDYWGQGTLVTVSS VL: DIQMTQSPSSLSASVGDRVTISCRASQDISNYLNWYQQKPGKTVKLLIYYTSRLHSGVPSRFSGSGSGTDYTFTISSLQPEDIATYFCQQDNTLPWTFGGGTKLEIK",0.015 mg/L,1.36 nM,0.000464 s⁻¹,340000 M⁻¹ s⁻¹
"Hu14G12-3 (antibody, V domains shown, humanized) VH: EVQLVQSGAEVKKPGATVKISCKVSGYAFSSSWMNWVQQAPGKGLEWMGRIYREDGHTNYNGKFKGRVTITADTSTDTAYMELSSLRSEDTAVYYCATGGAMDYWGQGTLVTVSS VL: DIQMTQSPSSLSASVGDRVTISCRASQDISNYLNWYQQKPGKAVKLLIYYTSRLHSGVPSRFSGSGSGTDFTFTISSLQPEDIATYFCQQDNTLPWTFGGGTKLEIK",0.026 mg/L,27.5 nM,0.0055 s⁻¹,200000 M⁻¹ s⁻¹
"Hu14G12-47 (antibody, V domains shown, humanized) VH: QVQLVQSGAEVKKPGASVKVSCKASGYAFSSSWMNWVRQAPGQGLEWMGRIYREDGHTNYNGKFKGRVTMTADKSTTTAYMELRSLRSDDTAVYYCANGGAMDYWGQGTLVTVSS VL: DIQMTQSPSTLSASVGDRVTITCRASQDISNYLNWYQQKPGKAPKLLIYYTSRLHSGVPSRFSGSGSGTEYTLTISSLQPDDIATYFCQQDNTLPWTFGGGTKVEIK",0.014 mg/L,2.1 nM,0.000921 s⁻¹,438000 M⁻¹ s⁻¹
"Hu14G12-44 (antibody, V domains shown, humanized) VH: QVQLVQSGAEVKKPGASVKVSCKASGYAFSSSWMNWVRQAPGQGLEWMGRIYREDGHTNYNGKFKGRVTMTADKSTTTAYMELRSLRSDDTAVYYCANGGAMDYWGQGTLVTVSS VL: DIQMTQSPSSLSASVGDRVTITCRASQDISNYLNWYQQKPGKAPKLLIYYTSRLHSGVPSRFSGSGSGTDYTLTISSLQPEDIATYFCQQDNTLPWTFGGGTKVEIK",0.0075 mg/L,1.41 nM,0.00197 s⁻¹,1.4e+06 M⁻¹ s⁻¹
"Hu14G12-37 (antibody, V domains shown, humanized) VH: QVQLVQSGAEVKKPGASVKVSCKASGYAFSSSWMNWVRQAPGQGLEWMGRIYREDGHTNYNGKFKGRVTMTADKSTTTAYMELSSLRSEDTAVYYCANGGAMDYWGQGTLVTVSS VL: DIQMTQSPSTLSASVGDRVTITCRASQDISNYLNWYQQKPGKAPKLLIYYTSRLHSGVPSRFSGSGSGTEYTLTISSLQPDDIATYFCQQDNTLPWTFGGGTKVEIK",0.011 mg/L,1.05 nM,0.00142 s⁻¹,1.34e+06 M⁻¹ s⁻¹
"Hu14G12-43 (antibody, V domains shown, humanized) VH: QVQLVQSGAEVKKPGASVKVSCKASGYAFSSSWMNWVRQAPGQGLEWMGRIYREDGHTNYNGKFKGRVTMTADKSTTTAYMELRSLRSDDTAVYYCANGGAMDYWGQGTLVTVSS VL: DIQMTQSPSSLSASVGDRVTITCRASQDISNYLNWYQQKPGKAPKLLIYYTSRLHSGVPSRFSGSGSGTDYTFTISSLQPEDIATYFCQQDNTLPWTFGGGTKVEIK",0.0064 mg/L,0.844 nM,0.0016 s⁻¹,1.89e+06 M⁻¹ s⁻¹
